US20250367130A1, “THERMORESPONSIVE HYDROGEL CONTAINING METAL-ORGANIC FRAMEWORK PARTICLES FOR NONINVASIVE OCULAR DRUG DELIVERY” (University of Pittsburgh - Of the Commonwealth System of …, priority 2024, published 2025)

Test: Biodistribution study of ovalbumin in rabbit eye tissues and plasma, quantified with ELISA
Format: in vivo, New Zealand white rabbits
Description: Biodistribution studies involved healthy New Zealand white rabbits (n=5). The right eye of the rabbits was given a 100 μL of gel with the MOF and PLGA MP particles, independently, and a 50 μL injection of 10 mg/mL ovalbumin solution, for comparative purposes. The left eye was the experimental control. At 1 and 3 days, rabbits were sacrificed, and both eyes were removed. Aqueous humor, vitreous humor, retina-choroid and plasma were collected, and time-dependent concentrations were quantified with ELISA.
After one administration of the topical delivery system, ovalbumin is detectable in the aqueous humor, vitreous humor, retina-choroid, and plasma. […] However, these concentrations are 10^5 lower than what is seen with intravitreal injections after 3 days.

[1] = after one administration of the topical delivery system, rabbit

B1: ovalbumin (protein, UniProt P01012 2-386, looked up)
Ovalbumin: GSIGAASMEFCFDVFKELKVHHANENIFYCPIAIMSALAMVYLGAKDSTRTQINKVVRFDKLPGFGDSIEAQCGTSVNVHSSLRDILNQITKPNDVYSFSLASRLYAEERYPILPEYLQCVKELYRGGLEPINFQTAADQARELINSWVESQTNGIIRNVLQPSSVDSQTAMVLVNAIVFKGLWEKAFKDEDTQAMPFRVTEQESKPVQMMYQIGLFRVASMASEKMKILELPFASGTMSMLVLLPDEVSGLEQLESIINFEKLTEWTSSNVMEERKIKVYLPRMKMEEKYNLTSVLMAMGITDVFSSSANLSGISSAESLKISQAVHAAHAEINEAGREVVGSAEAGVDAASVSEEFRADHPFLFCIKHIATNAVLFFGRCVSP
notes: test agent, acting as a surrogate agent for other anti-VEGF proteins
**Q.** With B1 as the molecule, how does the “ovalbumin detection in aqueous humor” value (after one administration of the topical delivery system (100 μL gel with particles), rabbit) read?
**A.** detectable

**Q.** What about the “ovalbumin concentration in retina-choroid relative to vitreous humor” value [1] of the same molecule?
**A.** 9 ×

**Q.** What about the “ovalbumin concentration in the vitreous humor” value [1] of the same molecule?
**A.** ~1 ng/mL

**Q.** And the “ovalbumin detection in plasma” value [1]?
**A.** detectable

**Q.** What about the “ovalbumin detection in retina-choroid” value [1] of the same molecule?
**A.** detectable

**Q.** What about the “ovalbumin detection in vitreous humor” value [1] of the same molecule?
**A.** detectable

**Q.** And the “factor by which concentrations are lower than with intravitreal injections” value (topical delivery system vs intravitreal injection, after 3 days)?
**A.** 10^5
